According to the supplement of paper PMC11908140:

B1: library; numbered along this chain (parent)
chain: MRKPRAAVGSGHRKQAASQEGRQKHAKNNSQAKPSACDGLARQPEEVVLQASVSSYHLFRDVAEVTAFRGSLLSWYDQEKRDLPWRRRAEDEMDLDRRAYAVWVSEVMLQQTQVATVINYYTGWMQKWPTLQDLASASLEEVNQLWAGLGYYSRGRRLQEGARKVVEELGGHMPRTAETLQQLLPGVGRYTAGAIASIAFGQATGVVDGNVARVLCRVRAIGADPSSTLVSQQLWGLAQQLVDPARPGDFNQAAMELGATVCTPQRPLCSQCPVESLCRARQRVEQEQLLASGSLSGSPDVEECAPNTGQCHLCLPPSEPWDQTLGVVNFPRKASRKPPREESSATCVLEQPGALGAQILLVQRPNSGLLAGLWEFPSVTWEPSEQLQRKALLQELQRWAGPLPATHLRHLGEVVHTFSHIKLTYQVYGLALEGQTPVTTVPPGARWLTQEEFHTAAVSTAMKKVFRVYQGQQPGTCMGSKRSQVSSPCSRKKPRMGQQVLDNFFRSHISTDAHSLNSAAQ

Variants of: B1
Assay: 8OG:A repair function score (normalized; synonymous = 0, nonsense = -1) (normalized log-likelihood score); higher = more repair activity (WT-like)
Settings: with 8OG:A DNA repair reporter (GFP) in HEK-293 MUTYH KO cells
How it was run: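 With 10 pg/ml doxycycline, MUTYH knockout HEK-293 cells carrying lentiviral MUTYH cDNA NNN codon-scan libraries were co-transfected with mCherry and an 8OG:A GFP repair reporter. Viable mCherry+ cells were sorted into GFP+ (repair) and GFP− bins at 72 h, three replicates per tile, and tile amplicons were sequenced. Per-tile Rosace fitness scores were then normalized into a repair function score anchored on synonymous and nonsense distributions. Medians were fixed at 0 for synonymous and -1 for nonsense, excluding variants under 300 counts per million at the start.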

8OG:A repair function score of substitutions, site by site:
Q435: T 0.028; G -0.0569; L 0.0233; F -0.052; M 0.051; N -0.138; I 0.00734; H 0.148; A -0.0344; Y 0.0772; C 0.293; K 0.0819; E -0.132; V -0.157; R 0.0382; D 0.0234; P 0.288; W -0.125; S 0.261
V441: W -0.278; M 0.176; D -0.144; K -0.215; Y -0.0452; S -0.0467; I -0.0341; P -0.0374; A -0.0435; R -0.293; F -0.0997; H -0.533; Q -0.259; G -0.221; E -0.161; C -0.261; L -0.0169; N -0.259; T -0.0387
V438: M -0.252; F -0.193; C 0.134; I -0.407; N 0.103; T -0.0976; S -0.176; P 0.0371; A 0.149; D 0.0779; Q 0.187; K -0.0297; L -0.0153; E 0.281; G -0.176; W -0.131; R 0.11; H -0.17; Y -0.0793
E433: N -0.0644; D -0.241; F -0.199; W -0.393; G 0.00508; R 0.0685; Q 0.165; S 0.0139; V -0.164; C -0.179; H -0.0353; M -0.0329; A 0.0651; I 0.00922; L -0.0355; K -0.0112; T -0.00904; Y -0.0863; P 0.219
L432: Y -0.499; M -0.284; D -0.57; T -0.151; K -0.608; H -0.223; F -0.116; A -0.541; N -0.504; Q -0.604; W 0.0604; G -0.302; C 0.0294; V -0.118; R -0.334; P -0.514; I -0.208; E -0.542; S -0.284
P443: F 0.179; R -0.143; N 0.222; V 0.172; A 0.0799; Y -0.0335; C -9.64e-05; H 0.055; S 0.0247; W -0.309; D -0.00467; G -0.0689; M 0.0448; T -0.199; E -0.318; L 0.058; Q 0.0864; K -0.324; I 0.0878
Y428: T -1.1; I -1.03; M -0.656; R -1.14; H -0.753; V -1.03; P -1.18; W 0.228; L -0.828; S -0.915; Q -1.2; N -1.01; K -0.832
T439: P 0.126; E 0.0225; H 0.301; A 0.0597; G 0.107; M 0.106; R -0.0617; D -0.225; S -0.0274; Q -0.173; W 0.0448; F -0.0571; Y -0.104; K 0.00137; I 0.0704; C -0.19; L -0.0119; V 0.0472; N -0.0163
T440: D -0.0869; F 0.0139; I -0.117; H -0.111; P -0.041; W -0.105; G -0.145; E 0.0718; K 0.0852; V -0.0931; R -0.0347; S 0.0249; L -0.194; C 0.0206; Y 0.157; N -0.313; Q -0.0653; M -0.109; A -0.131
L430: W 0.0653; M -0.448; P -0.888; R -0.655; S -0.127; C -0.0232; E -0.36; A -0.143; H -0.604; F 0.0205; I -0.29; N -0.276; D -0.393; V -0.165; Y -0.0889; T -0.477; K -0.617; Q -0.561; G -0.304
A431: L 0.0682; E 0.346; F -0.237; G -0.211; Y -0.0701; H 0.358; S 0.129; R -0.0201; I 0.0332; N 0.00246; W -0.13; P -0.0943; D -0.204; C -0.0248; M -0.23; K 0.126; V -0.0559; T -0.0229; Q -0.242
P442: Y -0.28; S 0.00212; Q 0.213; E -0.177; N -0.426; I -0.0279; L -0.12; V -0.0512; D -0.0873; C -0.141; K -0.261; G -0.171; F -0.0534; A -0.19; R -0.0654; W -0.205; T -0.0315; M 0.0715; H 0.0816
T436: N -0.0228; V -0.079; Q 0.0306; M 0.186; S -0.173; A 0.195; W -0.00145; C -0.201; G -0.0926; F -0.0267; I -0.0834; R -0.124; L 0.548; H 0.323; E -0.16; K -0.201; P -0.0919; D 0.113; Y 0.0674
P437: S -0.0348; M -0.528; I -0.277; D -0.128; V -0.0519; E 0.0852; W 0.078; H 0.0786; R -0.174; G 0.136; K -0.15; C -0.244; L -0.197; A -0.00344; Q -0.0348; N -0.284; Y -0.351; T -0.142; F -0.282
G434: V -0.0502; W 0.0509; P -0.0275; T -0.0414; R -0.0648; H -0.0472; N -0.392; D -0.275; E 0.0175; I -0.0439; S -0.0544; A 0.188; K 0.22; L -0.158; C 0.163; Y 0.0378; Q -0.0366; M 0.0898; F 0.125
G444: E -0.0932; A -0.284; N -0.198; P -0.189; H -0.155; Q -0.113; V -0.448; I -0.373; S -0.291; F -0.32; M -0.298; K -0.0942; Y -0.204; D -0.275; C -0.242; L -0.255; T -0.00488; W -0.444; R -0.119
A445: H -0.71; E -0.567; C 0.0578; I -0.318; V -0.109; R -0.53; Q -0.575; S -0.0458; G -0.0675; D -1.09; P -0.65; L -0.363; T -0.288; M -0.292; K -0.464; N -0.506; F -0.672
G429: D -0.382; L -0.125; F 0.209; H -0.299; R -0.355; C 0.227; Q -0.283; P -1.12; T -0.219; W -0.114; I -0.0856; A 0.031; N -0.133; Y -0.0542; M -0.288; K -0.404; E -0.296; V -0.00866; S -0.131
